“And” between values parts separate entries of the source, which are not always exact repeats. Identical values can stand only once.
What was measured:
[1] = with ultrasound; cited from earlier work
[2] = format: in vitro ADME, New Zealand White Rabbit
Experimental: The eyes of New Zealand White Rabbits (6-month to one-year-old) were enucleated immediately after the rabbits were sacrificed. The eyes were kept on ice prior to experiments and the time lag never exceeded 15 minutes to ensure tissue freshness. All the periocular tissues (muscles and conjunctiva) were removed and the optic nerve was sealed with Vaseline®. The eye was immersed in a container filled with 4 ml of 0.1% FITC-BSA or BBS+®. An ultrasound transducer with a probe size of 1 cm^2 (BTL-4000, BTL Industries, Inc., Clark, N.J.) was positioned a few millimeters above the sclera near the equator. The zone of ultrasound application was labeled with a marker. Ultrasound at a therapeutic frequency (1 MHz) and a low power input (0.5 W/cm^2) was applied for 30 seconds. The eye continued to be immersed in 0.1% FITC-BSA or BBS+® for different time intervals (5, 15, 30 and 60 minutes for 0.1% FITC-BSA; 15 minutes for BSS+®). All of the experiments were carried out at room temperature. The scleral surface temperature at the ultrasound application zone before and after treatment was measured using a thermocouple. Controls were performed by immersing the eyes for different time intervals without ultrasound application.
Immediately after the ex vivo experiments, the whole eye was washed and immersed in a mould filled with optimum cutting temperature medium (O.C.T) (Leica, Wetzlar, Germany), followed by quick-freezing in liquid nitrogen. 10 μm thick sections across the marked ultrasound application zone of the eye were cut using a cryostat (CM1850, Leica, Wetzlar, Germany). Polylysine-coated slides were used for collecting the tissue sections.
All images were acquired using a fluorescence microscope (BX 41, Olympus, Center Valley, Pa.). The image of the sclera was captured under optical mode, and FITC-BSA penetration into the sclera was captured under fluorescence mode (bandpass filter: 510-550 nm, dichroic mirror: 570 nm, barrier filter: 590 nm, exposure time: […]). The pictures shown in the FIGS. 15-17 were merged images of these two modes. The thickness of the sclera and the penetration distance of FITC-BSA were obtained using the software SPOT® (Diagnostic Instruments, Inc., MI, USA). For each experiment or control, 2 to 4 eyes from different rabbits were used. Three tissue sections were obtained from each eye and at least 20 measurements on the penetration distance were made in each eye. Only images showing intact sclera were used for measurement to avoid ambiguity.
In the first set of experiments, the parameters of the ultrasound used were set as follows: frequency: 1 MHz, power: 0.5 W/cm^2, application duration: 30 seconds, size of transducer: 1 cm^2. Freshly enucleated New Zealand White Rabbit eyes were used as an ex vivo eye model, and 65 kDa protein fluorescent albumin was used as the model macromolecule. Whole rabbit eyes were immersed in fluorescent albumin solution. Ultrasound was applied for 30 s and then the eyes were kept in fluorescent albumin for 5, 15 or 30 minutes. For the control experiment, the eyes were immersed in fluorescent albumin for 15 minutes without ultrasound application. The eyes were then flash frozen in OCT (Optimum Cutting Temperature) medium with liquid nitrogen and sectioned in cryostat for further investigation.
Briefly, the parameters of the ultrasound were set as follows: frequency: 1 MHz, power: 0.5 W/cm^2, application duration: 30 seconds, size of transducer: 1 cm^2. […]

[3] = Calculation of intrascleral diffusivity from penetration distance versus square root of time; format: in vitro ADME, New Zealand White Rabbit; conditions: for intrascleral diffusivity: 37° C.
Experimental: The one-dimensional diffusion model describing the penetration distance (L), diffusivity (D) and time of diffusion (t) is given by the equation below (23): L=√{square root over (2Dt)}. (1)
A plot of the penetration distance versus the square root of time yields a straight line. The diffusivity is calculated from the slope, which equals […].
The diffusivity measured at room temperature is converted to the value at 37° C. according to Stokes-Einstein equation, which gives
[formula] where D and η are diffusivity and viscosity respectively, with the temperature designated at the subscript. Since the experiment was conducted in dilute buffer solution, the viscosity of water is used. Histological Study

Row | Molecule | enhancement of delivery through the cornea versus passive diffusion [1] | depth of intrascleral site reached [2] | increase in percentage of depth of protein penetration versus control [2] [folds] | level of penetration (qualitative) [2] | penetration depth [2] [μm] | penetration versus sample without 15-minute BSS+ pretreatment [2] | increase in ocular diffusivity ([3]; 0.5 W/cm^2, 1 MHz ultrasound for 30 seconds) [folds] | intrascleral diffusivity ([3]; control without ultrasound) | intrascleral diffusivity ([3]; with ultrasound, first 15 min) | intrascleral diffusivity ([3]; with ultrasound, from 15 to 60 min) | increase in diffusivity by ultrasound treatment ([3]; first 15 minutes, ultrasound versus no ultrasound) [times]
1 | O=C([O-])c1ccccc1-c1c2ccc(=O)cc-2oc2cc([O-])ccc12.[Na+].[Na+] [sodium fluorescein] | ten times |  |  |  |  |  |  |  |  |  | 
2 | FITC-BSA: 65 kDa protein fluorescent albumin used as the model macromolecule |  | about 110 μm | 4 | failed to penetrate into the sclera | 15.8±5.7 | much lower | 2 | 3.90×10^−08 cm^2/sec | 6.17×10^−8 cm^2/sec and 6.17×10^−08 cm^2/sec | 4.18×10^−8 cm^2/sec | 1.6

— patent publication US9314421B2, “Ultrasound-enhanced intrascleral delivery of macromolecules” (The Hong Kong University of Science and Technology, priority 2009, dated 2016)
